Results published in patent US20010052137A1, “Axin domain-like polypeptide inhibitors of glycogen synthase kinase 3 beta activity and activators of wnt signaling” (Trustees of the University of Pennsylvania, priority 2000, published 2001).

How the values were obtained:
[1] = tested on: GSK-3 beta; assay: In ovo tau phosphorylation assay: GSK-3 beta and Xaxin constructs co-expressed in Xenopus oocytes; assay type: cell-based; conditions: construct co-expressed with GSK-3 beta in Xenopus oocytes; tau microinjected; PHF-1 immunoblot
Procedure: Stage VI Xenopus oocytes were isolated by collagenase treatment (Smith et al., 1994, Meth. Cell Biol. 36:45-58) and were injected with mRNA prepared by in vitro transcription (mMessage Machine™; Ambion, Austin, Tex.). 10 nanoliters of mRNA (containing 1-2 nanograms per nanoliter) was injected for each construct (unless otherwise specified), and the injected oocytes were incubated for 16 hours at 18° C. To analyze the effects of Xaxin constructs on dorsal-ventral pattern formation, Xenopus embryos were injected with 10 nanoliters of mRNA (0.1-0.2 nanogram per nanoliter) into one dorsal or ventral cell of a 4 cell embryo and dorsal axes were assessed at the tadpole stage. For Xaxin co-immunoprecipitation, fertilized eggs were injected with 10 nanoliters of Xaxin tagged with Myc, with hemagglutinin, or with both Myc and hemagglutinin (1 nanogram per nanoliter) and harvested at the blastula stage (stage 8).
In ovo phosphorylation of tau by GSK-3 beta was performed by microinjection of tau protein into oocytes expressing GSK-3 beta and Xaxin constructs. After 90 minutes, oocytes were homogenized and tau phosphorylation was analyzed in western blots using phospho-specific antibodies as described (Hedgepeth et al., 1997, Develop. Biol. 185:82-91). In vitro assays for GSK-3 beta activity were performed as described (Klein et al., 1996, Proc. Natl. Acad. Sci. USA 93:8455-8459). Recombinant GID-2/his protein (described below) was purified by affinity chromatography and added to in vitro assays at selected concentrations.
In the experiments presented in this example, a tau phosphorylation assay (described in Hedgepeth et al., 1997, Develop. Biol. 185:82-91) was used to examine the activity of GSK-3 beta in Xenopus oocytes in the presence of full length axin and axin deletion mutants. […] Furthermore, GSK-3 beta-dependent tau phosphorylation occurs in oocytes at the same sites (tau serine residues 396 and 404) that are phosphorylated by GSK-3 beta in vitro and occurs with similarly rapid kinetics.
GSK-3 beta was expressed in oocytes together with Myc-tagged full length Xaxin or with the amino-terminal (amino acid residues 63-288), GID-1 (amino acid residues 277-545), or carboxyl-terminal (amino acid residues 429-713) fragments of Xaxin, as depicted in FIG. 1A. Purified tau protein was then microinjected into the oocytes, and phosphorylation of tau was measured by immunoblotting using antibody PHF-1 or with antibodies that detect all (i.e. phosphorylated and non-phosphorylated) forms of tau.
In order to identify the domain of axin necessary for GSK-3 beta binding, multiple Myc-tagged GID deletion constructs (shown diagrammatically in FIG. 3A) were individually expressed in Xenopus oocytes in which GSK-3 beta was also expressed. Tau protein was microinjected into the oocytes, and immunoblotting was performed using phosphorylation-state-specific tau antibodies. A parallel group of oocytes expressing GSK-3 beta and the Myc-tagged GID deletion constructs were lysed, and GID proteins were immunoprecipitated using a Myc-specific antibody. The presence or absence of GSK-3 beta in GID immunoprecipitates was detected using GSK-3 beta-specific antibodies. GID deletion constructs which included amino acid residues 380-404 of Xaxin (i.e. constructs GID-1, GID-2, GID-4, GID-5, and GID-6) bound GSK-3 beta and inhibited GSK-3 beta mediated tau phosphorylation, as indicated in FIG. 3A. […] However, changing leucine residue 392 in FIG. 3B to proline abolishes its activity.

[2] = tested on: LEF-1 dependent transcription (wnt signaling); assay: LEF-luciferase reporter of wnt signaling in 293T cells; assay type: cell-based; conditions: 293T cells
Procedure: LEF-1 (also designated tcf) is a DNA-binding protein that also binds with beta-catenin. The beta-catenin/LEF-1 complex is known to activate transcription of wnt target genes. A genetic construct was made which comprised this LEF-1-binding promoter operably linked with a luciferase gene, for use as a reporter of wnt signaling.
Single plasmids encoding individual GID fragments were transfected into 293T cells, together with the LEF-luciferase reporter, and luciferase activity was measured after 24 hours. GID fragments induced up to 100- to 250-fold activation of LEF-luciferase (normalized to activity from the mutated LEF-reporter control, which was activated less than 2-fold).

[3] = target: T1, FL Xaxin (Xenopus laevis, UniProt Q9YGY0); assay: Yeast two hybrid assay, interaction with FL Xaxin; assay type: binding; conditions: beta-galactosidase filter assay in S. cerevisiae
T1 construct: expressed in transfected cells; host or cells: Saccharomyces cerevisiae
Text: (§1) FL Xaxin was cloned in frame with the GAL4 DNA binding domain (BD) in plasmid pAS2-1 (Clontech) to yield BD plasmid. Expression of BD plasmid yielded a Xaxin-GAL4 fusion protein. FL Xaxin, deltaDIX Xaxin, and a fragment (designated “AID”) encoding amino acid residues 489-777 of Xaxin were cloned in frame with the GAL4 transcriptional activation domain (AD) in the vector pACT2 to yield AD plasmids. Yeast were transformed with BD and AD plasmids using previously described protocols (Clontech, Palo Alto, Calif.). Transformed colonies were selected and assayed for beta-galactosidase activity in order to detect interacting proteins. In addition, three Xenopus axin partial length cDNAs (designated Y2H 2, Y2H 6, Y2H 7; all in plasmid pACT2) isolated from a previous yeast two hybrid screen (Hedgepeth et al., 1999, Mech. Develop. 80:147-151) were analyzed. Purification of GID
(§2) Using the yeast two hybrid assay, the ability of axin to bind with itself, with other members of the wnt pathway, or with the G(alpha)q subunit of heterotrimeric G-proteins, was investigated. […]
(§3) Saccharomyces cerevisiae cells were transformed with the bait vector and with one of the target vectors. Interaction was assessed using a filter assay to detect beta-galactosidase activity, as described (Fields et al., 1989, Nature 340:245-247; Harper et al., 1993, Cell 75:805-816). […]

[4] = target: T2, carboxyl-terminal fragment of Xenopus frizzled 7 (Xenopus laevis, UniProt Q9PUK8); assay: Yeast two hybrid assay, interaction with frizzled 7 fragment; assay type: binding; conditions: beta-galactosidase filter assay in S. cerevisiae
T2 sequence (Q9PUK8 525-549 limits assumed): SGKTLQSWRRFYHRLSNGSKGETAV
Text: as §1, §2, §3

B1: full length Xaxin: full length Xenopus axin, amino acid residues 1-842 (SEQ ID NO: 8) (protein, listed as Xenopus laevis)
chain: MSVKGKGFPLDLGGSFTEDAPRPPVPGEEGELITTDQRPFSHTYYSLKNDGIKNETSTATPRRPDLDLGYEPEGSASPTPPYLKWAESLHSLLDDQDGIHLFRTFLQQENCADLLDFWFACSGFRKLEPNDSKVEKRLKLAKAIYKKYVLDSNGIVSRQIKPATKSFIKDCVLRQQIDPAMFDQAQMEIQSMMEDNTYPVFLKSDIYLEYTTIGGESPKNYSDQSSGSGTGKGPSGYLPTLNEDEEWRCDQGGEHERERECIPSSLFSQKLALDSSSHCAGSNRRLSDGREFRPGTWREPVNPYYVNTGYAGAPVTSANDSEQQSMSSDADTMSLTDSSVDGIPPYRLRKHYRREMQESANANGRGPLPHIPRTYHMPKDIHVDPEKFAAELISRLEGVLRDREAEQKLEERLKRVRAEEEGDDGDVSSGPSVISHKLPSGPPMHHFNSRYSETGCVGMQIRDAHEENPESILDEHVQRVMKTPGCQSPGTGRHSPKSRSPDGHLSKTLPGSLGTMQTGHGKHSSKSTAKVDSGNLHHHKHVYHHVHHHGGVKPKEQIDGESTQRVQTNFPWNVESHNYATKSRNYAESMGMAPNPMDSLAYSGKVSMLSKRNAKKADLGKSESASHEMPVVPEDSERHQKILQWIMEGEKEIIRHKKSNHSSSSAKKQPPTELARPLSIERPGAVHPWVSAQLRNVVQPSHPFIQDPTMPPNPAPNPLTQLVSKPGARLEEEEKKAAKMPQKQRLKPQKKNVSAPSQPCDNIVVAYYFCGEPIPYRTMVKGRVVTLGQFKELLTKKGNYRYYFKKVSDEFDCGVVFEEVREDDMILPIYEEKIIGQVEKID
**Q.** With B1 as the molecule, how does the “GSK-3 beta-mediated tau phosphorylation (GSK-3 beta activity)” value [1] read?
**A.** The value was “no discernible effect”.

**Q.** And the “activation of wnt signaling (LEF-1-binding promoter luciferase reporter)” value [2]?
**A.** Its value is “not”.

**Q.** And the “interaction with FL Xaxin (self-interaction)” value [3]?
**A.** Its value is “interacted strongly”.

**Q.** And the “interaction with carboxyl-terminal fragment of Xenopus frizzled 7” value [4]?
**A.** Its value is “did not interact”.
